Here are results for 23 molecules from PMC3713010, “Sox2 Transcriptionally Regulates Pqbp1, an Intellectual Disability-Microcephaly Causative Gene, in Neural Stem Progenitor Cells”.

Holding throughout (test): EMSA; 10% glycerol, 20 mM HEPES pH 7.8, 45 mM KCl, 10 mM NaCl, 1 mM EDTA, 1 mM DTT, 0.2 ug/uL BSA, 0.1% NP-40, 50 ng poly-dIdC; 20 ng each GST protein; room temperature 30 min (heterodimers 4 C); 6% PAGE 0.25x TBE
What all share (details): protein: recombinant; tags: GST (N-terminal, pGEX-6P-1); label: 32P-dCTP fill-in of the 5' (dG)5 overhangs of both strands (Methods; control probes are given with GGG)

The target of data set [1] is T1, Brn2 DNA-binding domain (BD-Brn2) (Mus musculus (B6), UniProt P31360 336-435).
T1 sequence: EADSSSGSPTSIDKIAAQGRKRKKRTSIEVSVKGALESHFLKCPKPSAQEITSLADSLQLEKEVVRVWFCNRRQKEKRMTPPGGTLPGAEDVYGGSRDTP
In short, it runs like this:
(§1)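 Transcription factor DNA-binding domains carrying a GST tag were expressed in E. coli BL21, purified on glutathione-sepharose and tested against annealed candidate cis-element oligonucleotides labelled with 32P-dCTP. Each reaction held 20 ng protein, 40,000–50,000 cpm probe and 50 ng poly-dIdC in HEPES/KCl glycerol buffer with BSA and detergent, incubated 30 min at room temperature, then run on 6% polyacrylamide in 0.25×TBE at 4°C. DNA binding was scored as the radioactivity of the band in the expected shift region, read on a phosphor imager.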

Data set [2] deals with T2, Oct6 DNA-binding domain (BD-Oct6) (Mus musculus (B6), UniProt P21952 317-416).
T2 sequence: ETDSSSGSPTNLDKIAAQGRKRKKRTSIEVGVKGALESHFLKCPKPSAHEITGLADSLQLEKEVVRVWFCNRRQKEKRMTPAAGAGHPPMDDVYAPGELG
In short, it runs like this: as §1

Data set [3] deals with Pax6 DNA-binding domain (BD-Pax6) (Mus musculus (B6), UniProt P63015 190-289). A digest of the protocol: as §1
Chain of Pax6 DNA-binding domain (BD-Pax6) (P63015 190-289): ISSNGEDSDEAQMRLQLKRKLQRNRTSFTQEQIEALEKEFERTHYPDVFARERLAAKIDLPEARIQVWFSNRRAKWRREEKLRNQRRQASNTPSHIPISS

B1: 46 (dsDNA)
DNA 1: GGGGGTTATTTCACAAAATCAACAAATCAAAAAGCCCCC
DNA 2: GGGGGCTTTTTGATTTGTTGATTTTGTGAAATAACCCCC
For the molecule B1, the binding result was “no binding” in data set [1], “binds” in data set [2] and “binds” in data set [3].

B2: 51 (dsDNA)
DNA 1: GGGGGGTCCGGCTTTTGTTGATTTGCTTATCTATCCCCC
DNA 2: GGGGGATAGATAAGCAAATCAACAAAAGCCGGACCCCCC
For the molecule B2, the binding result is recorded as “no binding” in data set [1], “no binding” in data set [2] and “binds” in data set [3].

B3: 50 (dsDNA)
DNA 1: GGGGGTTTGTAAGTTTGTACCATTTGGCCTCAGCCCCCCC
DNA 2: GGGGGGGCTGAGGCCAAATGGTACAAACTTACAAACCCCC
With B3, the binding result in data set [1], in data set [2] and in data set [3] was “no binding” in each case.

B4: 43 (dsDNA)
DNA 1: GGGGGAGGAGTGCTTTGTAAAAATAACTTCTATGTCCCCC
DNA 2: GGGGGACATAGAAGTTATTTTTACAAAGCACTCCTCCCCC
As for B4, the binding result in data set [1], in data set [2] and in data set [3] was “no binding” each time.

B5: 49 (dsDNA)
DNA 1: GGGGGCTCTCTGATTTGTGAGTATTGACAGAGAATCCCCC
DNA 2: GGGGGATTCTCTGTCAATACTCACAAATCAGAGAGCCCCC
Take B5: the binding result in data set [1], in data set [2] and in data set [3] was “no binding” in each case.

B6: 38 (dsDNA)
DNA 1: GGGGGAGGTTTTGATGATTATGAACAAAGCTTCTGTCCCCC
DNA 2: GGGGGACAGAAGCTTTGTTCATAATCATCAAAACCTCCCCC
Consider B6, for which the binding result is recorded as “no binding” in data set [1], “binds” in data set [2] and “no binding” in data set [3].

B7: 30 (dsDNA)
DNA 1: GGGGGTGTCTTCTCCCTAATGATTGTTGTATGACCCCCC
DNA 2: GGGGGGTCATACAACAATCATTAGGGAGAAGACACCCCC
For the molecule B7, the results for the binding result in data set [1], in data set [2] and in data set [3] were “binds”, “binds” and “no binding”, respectively.

B8: 39 (dsDNA)
DNA 1: GGGGGTTCAGGTTTTTGTAGGAACTTAAATTTTATGATTAGCCCCC
DNA 2: GGGGGCTAATCATAAAATTTAAGTTCCTACAAAAACCTGAACCCCC
As for B8, the binding result in data set [1], in data set [2] and in data set [3] was “binds” in each case.

B9: 44 (dsDNA)
DNA 1: GGGGGAAACCATGGGGGGTGGGCTGTAAACACAAAAAGGATTCCCCCC
DNA 2: GGGGGGAATCCTTTTTGTGTTTACAGCCCACCCCCCATGGTTTCCCCC
In the case of B9, the binding result in data set [1], in data set [2] and in data set [3] was “no binding” each time.

B10: 36 (dsDNA)
DNA 1: GGGGGTGCATACATTTGTAATTCATTTAGGTGGTTTTCCCCC
DNA 2: GGGGGAAAACCACCTAAATGAATTACAAATGTATGCACCCCC
As to B10, the binding result in data set [1], in data set [2] and in data set [3] was “binds” in each case.

B11: 42 (dsDNA)
DNA 1: GGGGGGCTTCAGCATTGTGAAATTGAATCATTGCCCCCC
DNA 2: GGGGGGCAATGATTCAATTTCACAATGCTGAAGCCCCCC
On to B11, for which the binding result is “no binding” in data set [1], “no binding” in data set [2] and “binds” in data set [3].

B12: 33 (dsDNA)
DNA 1: GGGGGATAGTACATTTGTTGTCATTAACAAATCAGTCCCCC
DNA 2: GGGGGACTGATTTGTTAATGACAACAAATGTACTATCCCCC
Take B12: the binding result in data set [1], in data set [2] and in data set [3] was “binds” in each case.

B13: 48 (dsDNA)
DNA 1: GGGGGATGAAATGGCTAAATCCTTTTTTTGTTGTTTGTTCCCCC
DNA 2: GGGGGAACAAACAACAAAAAAAGGATTTAGCCATTTCATCCCCC
Take B13: the binding result in data set [1] is recorded as “no binding”; in data set [2], “no binding”; in data set [3], “binds”.

B14: 52 (dsDNA)
DNA 1: GGGGGGGGGCAGCACAAATATTTCTGTGAATGTACCCCC
DNA 2: GGGGGTACATTCACAGAAATATTTGTGCTGCCCCCCCCC
Take B14: the binding result in data set [1], in data set [2] and in data set [3] was “no binding” throughout.

B15: 34 (dsDNA)
DNA 1: GGGGGTTGTTCCCTTTGACTTCTTGTGACTTTAACAAATTCTAAAGCCCCC
DNA 2: GGGGGCTTTAGAATTTGTTAAAGTCACAAGAAGTCAAAGGGAACAACCCCC
In the case of B15, the binding result in data set [1] was “no binding”; in data set [2], “no binding”; in data set [3] it was “binds”.

B16: 37 (dsDNA)
DNA 1: GGGGGTTTCATGGTTTGTTAGCTATTCTCTTATCACCCCCC
DNA 2: GGGGGGTGATAAGAGAATAGCTAACAAACCATGAAACCCCC
Take B16: the binding result in data set [1], in data set [2] and in data set [3] was “no binding” each time.

B17: 45 (dsDNA)
DNA 1: GGGGGAAATGTGCTTTATTTCACAAAATCAACAACCCCC
DNA 2: GGGGGTTGTTGATTTTGTGAAATAAAGCACATTTCCCCC
For B17, the binding result is on record as “no binding” in data set [1], “binds” in data set [2] and “binds” in data set [3].

B18: 47 (dsDNA)
DNA 1: GGGGGCCACCATCTGTAATGTCCTTGGCACAATAAAACCAACCCCC
DNA 2: GGGGGTTGGTTTTATTGTGCCAAGGACATTACAGATGGTGGCCCCC
Take B18: the results for the binding result in data set [1], in data set [2] and in data set [3] were “no binding”, “binds” and “no binding”, respectively.

B19: 41 (dsDNA)
DNA 1: GGGGGTTTGGAAAACAAAACATTAACCAAAATTTTCCCCC
DNA 2: GGGGGAAAATTTTGGTTAATGTTTTGTTTTCCAAACCCCC
B19: the binding result in data set [1] is “no binding”; in data set [2] it was “binds”; in data set [3], “binds”.

B20: 40 (dsDNA)
DNA 1: GGGGGTTTGTCATTTTGTAGTGCTAGGAATTAAACCCATGTCCCCC
DNA 2: GGGGGACATGGGTTTAATTCCTAGCACTACAAAATGACAAACCCCC
With B20, the binding result in data set [1], in data set [2] and in data set [3] was “binds” throughout.

B21: 31 (dsDNA)
DNA 1: GGGGGTCCTCTCCTTTGTTTTGTCCTCACACCCCCAGCTGACCAGGTGCCCCC
DNA 2: GGGGGCACCTGGTCAGCTGGGGGTGTGAGGACAAAACAAAGGAGAGGACCCCC
For the molecule B21, the binding result in data set [1], in data set [2] and in data set [3] was “no binding” in each case.

B22: 32 (dsDNA)
DNA 1: GGGGGCGTTGCACACAAACCTTAATTTTCCAATCTATTCCCCC
DNA 2: GGGGGAATAGATTGGAAAATTAAGGTTTGTGTGCAACGCCCCC
B22: the binding result in data set [1], in data set [2] and in data set [3] was “binds” throughout.

B23: 35 (dsDNA)
DNA 1: GGGGGGTTTCTCTAATTAATAGACTTCATTGTTCAAAACTATTTTACATTTGTTCCCCC
DNA 2: GGGGGAACAAATGTAAAATAGTTTTGAACAATGAAGTCTATTAATTAGAGAAACCCCCC
Take B23: the binding result in data set [1], in data set [2] and in data set [3] was “binds” in each case.
